Data as given in IntAct's records for PubMed 12925767.

B1: DASH complex subunit DAM1 (Saccharomyces cerevisiae), P53267 (parent)
chain: MSEDKAKLGTTRSATEYRLSIGSAPTSRRSSMGESSSLMKFADQEGLTSSVGEYNENTIQQLLLPKIRELSDSIITLDSNFTRLNFIHESLADLNESLGSLLYGIMSNSWCVEFSQAPHDIQDDLIAIKQLKSLEDEKNNLVMELSNMERGIKRKKDEQGENDLAKASQNKQFNQPLFPSSQVRKYRSYDNRDKRKPSKIGNNLQVENEEDYEDDTSSEASFVLNPTNIGMSKSSQGHVTKTTRLNNNTNSKLRRKSILHTIRNSIASGADLPIENDNVVNLGDLHPNNRISLGSGAARVVNGPVTKNRNSMFSGRAERKPTESRHSVAKKTEKKINTRPPFR

Variants of: B1
Details: with med21_yeast SRB7, P47822
med21_yeast SRB7, P47822, sequence (P47822 whole entry): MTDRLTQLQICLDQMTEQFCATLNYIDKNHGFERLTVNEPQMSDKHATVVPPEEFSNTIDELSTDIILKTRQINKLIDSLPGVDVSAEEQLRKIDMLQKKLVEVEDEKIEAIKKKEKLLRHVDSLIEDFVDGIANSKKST

Row | effect of a mutation on the interaction | Variant
1 | causing an interaction | MSEDKAKLGTTRSATEYRLDIGSAPTSRRSSMGESSSLMKFADQEGLTSSVGEYNENTIQQLLLPKIRELSDSIITLDSNFTRLNFIHESLADLNESLGSLLYGIMSNSWCVEFSQAPHDIQDDLIAIKQLKSLEDEKNNLVMELSNMERGIKRKKDEQGENDLAKASQNKQFNQPLFPSSQVRKYRSYDNRDKRKPSKIGNNLQVENEEDYEDDTSSEASFVLNPTNIGMSKSSQGHVTKTTRLNNNTNSKLRRKDILHTIRNDIASGADLPIENDNVVNLGDLHPNNRIDLGSGAARVVNGPVTKNRNSMFSGRAERKPTESRHSVAKKTEKKINTRPPFR [S20D;S257D;S265D;S292D]

Variants of: B1
Details: with nup82_yeast NUP82, P40368
nup82_yeast NUP82, P40368, sequence (P40368 whole entry): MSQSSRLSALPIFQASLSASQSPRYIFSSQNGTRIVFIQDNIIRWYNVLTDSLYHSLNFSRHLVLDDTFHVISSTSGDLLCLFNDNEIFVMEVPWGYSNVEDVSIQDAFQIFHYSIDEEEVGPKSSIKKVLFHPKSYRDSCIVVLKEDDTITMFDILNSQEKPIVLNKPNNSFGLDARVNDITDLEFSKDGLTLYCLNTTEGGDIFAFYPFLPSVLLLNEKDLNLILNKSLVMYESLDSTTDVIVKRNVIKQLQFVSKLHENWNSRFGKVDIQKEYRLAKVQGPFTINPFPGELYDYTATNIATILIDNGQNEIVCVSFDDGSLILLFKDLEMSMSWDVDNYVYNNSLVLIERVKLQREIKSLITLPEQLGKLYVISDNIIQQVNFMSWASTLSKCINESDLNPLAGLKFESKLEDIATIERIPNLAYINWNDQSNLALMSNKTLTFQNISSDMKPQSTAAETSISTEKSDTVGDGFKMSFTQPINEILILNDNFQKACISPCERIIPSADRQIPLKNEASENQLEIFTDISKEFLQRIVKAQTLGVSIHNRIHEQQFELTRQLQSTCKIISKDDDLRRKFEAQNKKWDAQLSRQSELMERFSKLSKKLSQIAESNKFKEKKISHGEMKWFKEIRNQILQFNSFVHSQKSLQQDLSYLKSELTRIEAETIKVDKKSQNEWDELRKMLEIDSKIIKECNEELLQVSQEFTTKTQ

Row | effect of a mutation on the interaction | Variant
2 | causing an interaction | MSEDKAKLGTTRSATEYRLAIGSAPTSRRSSMGESSSLMKFADQEGLTSSVGEYNENTIQQLLLPKIRELSDSIITLDSNFTRLNFIHESLADLNESLGSLLYGIMSNSWCVEFSQAPHDIQDDLIAIKQLKSLEDEKNNLVMELSNMERGIKRKKDEQGENDLAKASQNKQFNQPLFPSSQVRKYRSYDNRDKRKPSKIGNNLQVENEEDYEDDTSSEASFVLNPTNIGMSKSSQGHVTKTTRLNNNTNSKLRRKAILHTIRNAIASGADLPIENDNVVNLGDLHPNNRIALGSGAARVVNGPVTKNRNSMFSGRAERKPTESRHSVAKKTEKKINTRPPFR [S20A;S257A;S265A;S292A]

Variants of: B1
Details: with bmh1_yeast BMH1, P29311
bmh1_yeast BMH1, P29311, sequence (P29311 whole entry): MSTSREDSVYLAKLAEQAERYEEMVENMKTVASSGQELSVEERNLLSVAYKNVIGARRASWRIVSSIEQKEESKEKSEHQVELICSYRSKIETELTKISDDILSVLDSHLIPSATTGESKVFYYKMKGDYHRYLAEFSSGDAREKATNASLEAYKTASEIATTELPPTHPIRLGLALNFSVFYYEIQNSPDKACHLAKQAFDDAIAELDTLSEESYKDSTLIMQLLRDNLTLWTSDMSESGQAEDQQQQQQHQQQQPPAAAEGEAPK

Row | effect of a mutation on the interaction | Variant
3 | causing an interaction | MSEDKAKLGTTRSATEYRLAIGSAPTSRRSSMGESSSLMKFADQEGLTSSVGEYNENTIQQLLLPKIRELSDSIITLDSNFTRLNFIHESLADLNESLGSLLYGIMSNSWCVEFSQAPHDIQDDLIAIKQLKSLEDEKNNLVMELSNMERGIKRKKDEQGENDLAKASQNKQFNQPLFPSSQVRKYRSYDNRDKRKPSKIGNNLQVENEEDYEDDTSSEASFVLNPTNIGMSKSSQGHVTKTTRLNNNTNSKLRRKAILHTIRNAIASGADLPIENDNVVNLGDLHPNNRIALGSGAARVVNGPVTKNRNSMFSGRAERKPTESRHSVAKKTEKKINTRPPFR [S20A;S257A;S265A;S292A]
